From article PMC12103069

Target: GST-MuRF1 (MuRF1 full length, TRIM63) (Rattus norvegicus)
Experiment: other fluorescence titration; change in the initial fluorescence of dye-labelled GST-MuRF (10 nM, constant) with a 16-sample serial dilution of the E2; MonolithX (NanoTemper), premium capillaries, 100% MST power, 25 °C; 50 mM HEPES pH 7.4, 150 mM NaCl, 0.005% Tween20, 0.1% dextran

Sequence of GST-MuRF1 (MuRF1 full length, TRIM63) (Rattus norvegicus) (Q91Z63 whole entry): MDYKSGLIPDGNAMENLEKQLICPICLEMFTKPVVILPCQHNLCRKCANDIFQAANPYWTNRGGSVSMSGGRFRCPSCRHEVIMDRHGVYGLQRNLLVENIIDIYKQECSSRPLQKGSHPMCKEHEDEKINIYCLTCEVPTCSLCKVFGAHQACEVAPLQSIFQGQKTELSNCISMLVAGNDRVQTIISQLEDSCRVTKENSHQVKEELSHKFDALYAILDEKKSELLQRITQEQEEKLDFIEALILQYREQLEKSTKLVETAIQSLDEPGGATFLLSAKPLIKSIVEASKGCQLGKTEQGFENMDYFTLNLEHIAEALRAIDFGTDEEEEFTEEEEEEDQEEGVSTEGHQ

Row | Kd | Substance
1 | 26 µM | UBE2J2 cytosolic part K26A (from UniProt Q6P073 1-259) (domain or fragment)
2 | 8.9 µM | UBE2J2 cytosolic part N6A,R8A (from UniProt Q6P073 1-259) (domain or fragment)
3 | 10.3 µM | UBE2J2 cytosolic part P10A,T11A (from UniProt Q6P073 1-259) (domain or fragment)
